# Source: patent US20240016952A1 (published 2024)
# Substitutions are numbered along the chain they refer to. In names and notes the source's numbering stands.
# T1: cynomolgus monkey transferrin receptor 1 (cTfR1) (cynomolgus monkey (Macaca fascicularis), UniProt Q5RDH6 89-760 (Pongo abelii entry), limits assumed)
# T1 construct: Recombinant cynomolgus TfR1; also called cyTfR1; cyno TfR1
# T1 chain: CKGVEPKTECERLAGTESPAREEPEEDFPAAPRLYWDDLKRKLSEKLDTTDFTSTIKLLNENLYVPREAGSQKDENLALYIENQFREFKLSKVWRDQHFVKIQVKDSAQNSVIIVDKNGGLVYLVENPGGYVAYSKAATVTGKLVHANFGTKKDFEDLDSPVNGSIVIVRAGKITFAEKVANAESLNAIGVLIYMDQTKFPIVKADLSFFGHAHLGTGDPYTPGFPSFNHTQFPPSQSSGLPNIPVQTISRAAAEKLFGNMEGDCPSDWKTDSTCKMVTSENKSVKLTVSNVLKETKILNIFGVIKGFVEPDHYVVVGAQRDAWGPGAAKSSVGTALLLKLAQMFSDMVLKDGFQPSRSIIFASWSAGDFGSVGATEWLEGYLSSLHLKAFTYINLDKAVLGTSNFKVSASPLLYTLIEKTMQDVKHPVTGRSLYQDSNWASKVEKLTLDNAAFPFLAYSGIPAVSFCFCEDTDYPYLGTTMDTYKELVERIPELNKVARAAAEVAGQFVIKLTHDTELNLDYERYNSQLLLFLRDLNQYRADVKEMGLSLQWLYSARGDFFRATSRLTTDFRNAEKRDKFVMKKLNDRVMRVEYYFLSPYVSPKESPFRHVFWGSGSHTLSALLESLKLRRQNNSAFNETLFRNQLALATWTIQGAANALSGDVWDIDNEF
# B1: humanized anti-TfR Fab 5H12 VH5 (C33Y)/Vk4 (Fab, V domains shown)
# VH: QVQLVQSGAEVKKPGASVKVSCKASGYSFTDYYINWVRQAPGQGLEWMGWIYPGSGNTRYSERFKGRVTITRDTSASTAYMELSSLRSEDTAVYYCAREDYYPYHGMDYWGQGTLVTVSS
# VL: DIVMTQSPDSLAVSLGERATINCRASESVDGYDNSFMHWYQQKPGQPPKLLIFRASNLESGVPDRFSGSGSGTDFTLTISSLQAEDVAVYYCQQSSEDPWTFGQGTKLEIKR
# notes: also called 5H12 (VH4-C33Y/Vk4)
# B2: humanized anti-TfR Fab 5H12 VH5 (C33D)/Vk4 (Fab, V domains shown)
# VH: B1 VH with Y33D
# VL: B1 VL
# B3: humanized anti-TfR Fab 5H12 VH5 (C33Y)/Vk3 (Fab, V domains shown)
# VH: B1 VH
# VL: B1 VL with M4L, G72R
# B4: humanized anti-TfR Fab 3M12 VH3/Vk2 (Fab, V domains shown)
# VH: QVQLQESGPGLVKPSQTLSLTCSVTGYSITSGYYWNWIRQPPGKGLEWMGYITFDGANNYNPSLKNRVSISRDTSKNQFSLKLSSVTAEDTATYYCTRSSYDYDVLDYWGQGTTVTVSS
# VL: DIQMTQSPSSLSASVGDRVTITCRASQDISNFLNWYQQKPGQPVKLLIYYTSRLHSGVPSRFSGSGSGTDFTLTISSLQPEDFATYFCQQGHTLPYTFGQGTKLEIKR
# B5: humanized anti-TfR Fab 3M12 VH3/Vk3 (Fab, V domains shown)
# VH: B4 VH
# VL: B4 VL with F87Y
# B6: humanized anti-TfR Fab 3M12 VH4/Vk2 (Fab, V domains shown)
# VH: B4 VH with S23T, M49I
# VL: B4 VL
# B7: humanized anti-TfR Fab 3A4 VH3 (N54T)/Vk4 (Fab, V domains shown)
# VH: EVQLVQSGSELKKPGASVKVSCTASGFNIKDDYMYWVRQPPGKGLEWIGWIDPETGDTEYASKFQDRVTVTADTSTNTAYMELSSLRSEDTAVYYCTLWLRRGLDYWGQGTLVTVSS
# VL: DIVMTQSPLSLPVTPGEPASISCRSSKSLLHSNGYTYLFWFQQRPGQSPRLLIYRMSNLASGVPDRFSGSGSGTDFTLKISRVEAEDVGVYYCMQHLEYPFTFGGGTKVEIKR
# B8: humanized anti-TfR Fab 5H12 VH5 (C33Y)/Vk4 conjugated to DMPK-targeting oligonucleotide ASO300 (Fab, V domains shown)
# VH: B1 VH
# VL: B1 VL
# modifications: Fab conjugated to oligonucleotide ASO300; chain and residue not stated
# notes: Fab-oligonucleotide conjugate; also called 5H12 (VH4-C33Y/Vk4) conjugate
# B9: humanized anti-TfR Fab 5H12 VH5 (C33D)/Vk4 conjugated to DMPK-targeting oligonucleotide ASO300 (Fab, V domains shown)
# VH: B1 VH with Y33D
# VL: B1 VL
# modifications: Fab conjugated to oligonucleotide ASO300; chain and residue not stated
# notes: Fab-oligonucleotide conjugate; The protein chains are those of the unconjugated Fab
# B10: humanized anti-TfR Fab 3M12 VH3/Vk2 conjugated to DMPK-targeting oligonucleotide ASO300 (Fab, V domains shown)
# VH: B4 VH
# VL: B4 VL
# modifications: Fab conjugated to oligonucleotide ASO300; chain and residue not stated
# notes: as for B9
# B11: humanized anti-TfR Fab 3M12 VH4/Vk3 conjugated to DMPK-targeting oligonucleotide ASO300 (Fab, V domains shown)
# VH: B4 VH with S23T, M49I
# VL: B4 VL with F87Y
# modifications: Fab conjugated to oligonucleotide ASO300; chain and residue not stated
# notes: as for B9
# B12: humanized anti-TfR Fab 3A4 VH3 (N54T)/Vk4 conjugated to DMPK-targeting oligonucleotide ASO300 (Fab, V domains shown)
# VH: B7 VH
# VL: B7 VL
# modifications: Fab conjugated to oligonucleotide ASO300; chain and residue not stated
# notes: as for B9
# B13: humanized anti-TfR Fab 3A4 VH3/Vk4 conjugated to DMPK-targeting oligonucleotide ASO300 (Fab, V domains shown)
# VH: B7 VH with T55N
# VL: B7 VL
# modifications: Fab conjugated to oligonucleotide ASO300; chain and residue not stated
# notes: as for B9
# B14: humanized anti-TfR Fab 3A4 VH3 (N54S)/Vk4 conjugated to DMPK-targeting oligonucleotide ASO300 (Fab, V domains shown)
# VH: B7 VH with T55S
# VL: B7 VL
# modifications: Fab conjugated to oligonucleotide ASO300; chain and residue not stated
# notes: as for B9
# B15: humanized anti-TfR Fab 5H12 VH5 (C33Y)/Vk3 conjugated to DMPK-targeting oligonucleotide ASO300 (Fab, V domains shown)
# VH: B1 VH
# VL: B1 VL with M4L, G72R
# modifications: Fab conjugated to oligonucleotide ASO300; chain and residue not stated
# notes: as for B9
# B16: 3-A4 mouse monoclonal anti-TfR1 antibody (antibody, V domains shown)
# VH: EVQLQQSGAELVRPGASVKLSCTASGFNIKDDYMYWVKQRPEQGLEWIGWIDPENGDTEYASKFQDKATVTADTSSNTAYLQLSSLTSEDTAVYYCTLWLRRGLDYWGQGTSVTVSS
# VL: DIVMTQAAPSVPVTPGESVSISCRSSKSLLHSNGYTYLFWFLQRPGQSPQLLIYRMSNLASGVPDRFSGSGSGTAFTLRISRVEAEDVGVYYCMQHLEYPFTFGGGTKLEIK
# notes: Mouse mAb (IgG); also called 3-A04
# B17: 3-M12 mouse monoclonal anti-TfR1 antibody (antibody, V domains shown)
# VH: DVQLQESGPGLVKPSQSLSLTCSVTGYSITSGYYWNWIRQFPGNKLEWMGYITFDGANNYNPSLKNRISITRDTSKNQFFLKLTSVTTEDTATYYCTRSSYDYDVLDYWGQGTTLTVSS
# VL: DIQMTQTTSSLSASLGDRVTISCRASQDISNFLNWYQQRPDGTVKLLIYYTSRLHSGVPSRFSGSGSGTDFSLTVSNLEQEDIATYFCQQGHTLPYTFGGGTKLEIK
# notes: Mouse mAb (IgG)
# Target: T1, cynomolgus monkey transferrin receptor …
# Assay: ELISA, cyno TfR1, Fab, day 0 of thermal stability test
row,Binder,Binding affinity cyno TfR1 d 0 [nM]
1,B1,3.3
2,B2,3.5
3,B3,2.1
4,B4,9.9
5,B5,4.7
6,B6,1.4
7,B7,156

# Target: T1, cynomolgus monkey transferrin receptor …
# Assay: ELISA on plate-coated cyno TfR1, unconjugated Fab
row,Binder,Fab binding affinity ELISA [nM]
1,B1,3.3
2,B2,3.5
3,B3,2.1
4,B4,9.9
5,B5,4.7
6,B6,1.4
7,B7,156

# Target: T1, cynomolgus monkey transferrin receptor …
# Assay: ELISA, cyno TfR1, Fab after 9 days at 40 C
row,Binder,Binding affinity cyno TfR1 d 9 [nM]
1,B1,0.26
2,B2,0.63
3,B3,0.69
4,B4,19.5
5,B5,15.6
6,B6,5.01
7,B7,128

# Target: T1, cynomolgus monkey transferrin receptor …
# Assay: ELISA, cyno TfR1, Fab-ASO300 conjugate
row,Binder,DMPK oligo conjugate binding to cyno TfR1 [nM]
1,B8,13.9
2,B9,10.2
3,B10,2.26
4,B11,1.85
5,B12,5.12
6,B13,7.59
7,B14,4.1

# Target: T1, cynomolgus monkey transferrin receptor …
# Assay: ELISA on plate-coated cyno TfR1, Fab-ASO300 conjugate
row,Binder,Conjugate binding affinity ELISA [nM]
1,B8,3.3
2,B9,10.2
3,B15,2.3
4,B10,2.9
5,B11,2.1
6,B12,4.7
7,B13,7.6
8,B14,7.8

# Target: T2, human transferrin receptor 1 (hTfR1) (human, UniProt P02786 89-760)
# T2 construct: Recombinant human TfR1; also called huTfR1; Human TfR1
# T2 sequence (P02786 89-760 limits assumed): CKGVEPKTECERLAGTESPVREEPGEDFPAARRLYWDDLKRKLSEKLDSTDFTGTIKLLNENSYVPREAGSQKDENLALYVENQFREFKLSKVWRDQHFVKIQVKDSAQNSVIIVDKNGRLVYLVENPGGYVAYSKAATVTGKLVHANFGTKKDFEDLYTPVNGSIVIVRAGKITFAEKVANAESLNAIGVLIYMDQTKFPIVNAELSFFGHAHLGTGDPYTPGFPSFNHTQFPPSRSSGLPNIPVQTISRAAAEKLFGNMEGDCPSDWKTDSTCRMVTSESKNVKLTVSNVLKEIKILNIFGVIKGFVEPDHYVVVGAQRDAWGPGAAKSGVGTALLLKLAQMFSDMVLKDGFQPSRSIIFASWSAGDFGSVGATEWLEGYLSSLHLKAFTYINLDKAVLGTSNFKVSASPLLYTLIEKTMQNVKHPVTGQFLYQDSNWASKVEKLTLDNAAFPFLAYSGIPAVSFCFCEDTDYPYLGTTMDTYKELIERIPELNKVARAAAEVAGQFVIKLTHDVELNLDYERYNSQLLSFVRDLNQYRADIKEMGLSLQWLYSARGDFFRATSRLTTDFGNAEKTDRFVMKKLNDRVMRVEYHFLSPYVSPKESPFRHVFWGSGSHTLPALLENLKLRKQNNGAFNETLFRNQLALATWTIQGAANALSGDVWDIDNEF
# Assay: ELISA on plate-coated human TfR1, Fab-ASO300 conjugate
row,Binder,Conjugate binding affinity ELISA [nM]
1,B8,23.7
2,B9,110
3,B15,33.4
4,B10,2.2
5,B11,1.7
6,B12,2.8
7,B13,2.8
8,B14,2.9

# Target: T1, cynomolgus monkey transferrin receptor …
# Assay: average KD, antibody alone; method not given
row,Binder,Kd [nM]
1,B16,2.32
2,B17,5.18
